Results reported in paper PMC3585325.

Target: recombinant human IGF2R extracellular domains 1–15, biotinylated CD4 (domains 3 and 4) fusion protein (human) (UniProt P11717)
Assay: SPR; BIAcore T200; 1800 RU biotinylated IGF2R fusion protein immobilised on a streptavidin-loaded CM5 chip; IGF2 256 to 0.125 nM injected for 200 s at 40 µL/min, 25°C, HBS-EP buffer; kinetic fit to a 1:1 binding model and steady state analysis

Kd | Substance
3 to 6 nM | recombinant mouse IGF2 (ligand)
1 to 4 nM | recombinant human IGF2 (ligand)
